Earlier results on eleven molecules are cited in patent US20130145495A1, “ENHANCED CARBON FIXATION IN PHOTOSYNTHETIC HOSTS” (DONALD DANFORTH PLANT SCIENCE CENTER, priority 2010, published 2013).

B1: hCAXII: human α-carbonic anhydrase isoenzyme XII, transmembrane (protein, UniProt O43570 25-354, looked up)
Carbonic anhydrase 12: APVNGSKWTYFGPDGENSWSKKYPSCGGLLQSPIDLHSDILQYDASLTPLEFQGYNLSANKQFLLTNNGHSVKLNLPSDMHIQGLQSRYSATQLHLHWGNPNDPHGSEHTVSGQHFAAELHIVHYNSDLYPDASTASNKSEGLAVLAVLIEMGSFNPSYDKIFSHLQHVKYKGQEAFVPGFNIEELLPERTAEYYRYRGSLTTPPCNPTVLWTVFRNPVQISQEQLLALETALYCTHMDDPSPREMINNFRQVQKFDERLVYTSFSQVQVCTAAGLSLGIILSLALAGILGICIVVVVSIWLFRRKSIKKGDNKGVIYKPATKMETEAHA
B2: hCAVI: human α-carbonic anhydrase isoenzyme VI, secreted (protein, UniProt P23280 18-308, looked up)
Carbonic anhydrase 6: QHVSDWTYSEGALDEAHWPQHYPACGGQRQSPINLQRTKVRYNPSLKGLNMTGYETQAGEFPMVNNGHTVQISLPSTMRMTVADGTVYIAQQMHFHWGGASSEISGSEHTVDGIRHVIEIHIVHYNSKYKSYDIAQDAPDGLAVLAAFVEVKNYPENTYYSNFISHLANIKYPGQRTTLTGLDVQDMLPRNLQHYYTYHGSLTTPPCTENVHWFVLADFVKLSRTQVWKLENSLLDHRNKTIHNDYRRTQPLNHRVVESNFPNQEYTLGSEFQFYLHKIEEILDYLRRALN
B3: hCAXIV: human α-carbonic anhydrase isoenzyme XIV, transmembrane (protein, UniProt Q9ULX7 16-337, looked up)
Carbonic anhydrase 14: ADGGQHWTYEGPHGQDHWPASYPECGNNAQSPIDIQTDSVTFDPDLPALQPHGYDQPGTEPLDLHNNGHTVQLSLPSTLYLGGLPRKYVAAQLHLHWGQKGSPGGSEHQINSEATFAELHIVHYDSDSYDSLSEAAERPQGLAVLGILIEVGETKNIAYEHILSHLHEVRHKDQKTSVPPFNLRELLPKQLGQYFRYNGSLTTPPCYQSVLWTVFYRRSQISMEQLEKLQGTLFSTEEEPSKLLVQNYRALQPLNQRMVFASFIQAGSSYTTGEMLSLGVGILVGCLCLLLAVYFIARKIRKKRLENRKSVVFTSAQATTEA
B4: hCAVA: human α-carbonic anhydrase isoenzyme VA, mitochondria (protein, UniProt P35218 39-305, looked up)
Carbonic anhydrase 5A, …: CAWQTSNNTLHPLWTVPVSVPGGTRQSPINIQWRDSVYDPQLKPLRVSYEAASCLYIWNTGYLFQVEFDDATEASGISGGPLENHYRLKQFHFHWGAVNEGGSEHTVDGHAYPAELHLVHWNSVKYQNYKEAVVGENGLAVIGVFLKLGAHHQTLQRLVDILPEIKHKDARAAMRPFDPSTLLPTCWDYWTYAGSLTTPPLTESVTWIIQKEPVEVAPSQLSAFRTLLFSALGEEEKMMVNNYRPLQPLMNRKVWASFQATNEGTRS
B5: hCAVII: human α-carbonic anhydrase isoenzyme VII, cytosol (protein, UniProt P43166 1-264, looked up)
Carbonic anhydrase 7: MTGHHGWGYGQDDGPSHWHKLYPIAQGDRQSPINIISSQAVYSPSLQPLELSYEACMSLSITNNGHSVQVDFNDSDDRTVVTGGPLEGPYRLKQFHFHWGKKHDVGSEHTVDGKSFPSELHLVHWNAKKYSTFGEAASAPDGLAVVGVFLETGDEHPSMNRLTDALYMVRFKGTKAQFSCFNPKCLLPASRHYWTYPGSLTTPPLSESVTWIVLREPICISERQMGKFRSLLFTSEDDERIHMVNNFRPPQPLKGRVVKASFRA
B6: hCAIV: human α-carbonic anhydrase isoenzyme IV, membrane (protein, UniProt P22748 19-284, looked up)
Carbonic anhydrase 4: AESHWCYEVQAESSNYPCLVPVKWGGNCQKDRQSPINIVTTKAKVDKKLGRFFFSGYDKKQTWTVQNNGHSVMMLLENKASISGGGLPAPYQAKQLHLHWSDLPYKGSEHSLDGEHFAMEMHIVHEKEKGTSRNVKEAQDPEDEIAVLAFLVEAGTQVNEGFQPLVEALSNIPKPEMSTTMAESSLLDLLPKEEKLRHYFRYLGSLTTPTCDEKVVWTVFREPIQLHREQILAFSQKLYYDKEQTVSMKDNVRPLQQLGQRTVIKS
B7: hCAIII: human α-carbonic anhydrase isoenzyme III, cytosol (protein, UniProt P07451 2-260, looked up)
Carbonic anhydrase 3: AKEWGYASHNGPDHWHELFPNAKGENQSPVELHTKDIRHDPSLQPWSVSYDGGSAKTILNNGKTCRVVFDDTYDRSMLRGGPLPGPYRLRQFHLHWGSSDDHGSEHTVDGVKYAAELHLVHWNPKYNTFKEALKQRDGIAVIGIFLKIGHENGEFQIFLDALDKIKTKGKEAPFTKFDPSCLFPACRDYWTYQGSFTTPPCEECIVWLLLKEPMTVSSDQMAKLRSLLSSAENEPPVPLVSNWRPPQPINNRVVRASFK
B8: hCAVB: human α-carbonic anhydrase isoenzyme VB, mitochondria (protein, UniProt Q9Y2D0 34-317, looked up)
Carbonic anhydrase 5B, …: CSLYTCTYKTRNRALHPLWESVDLVPGGDRQSPINIRWRDSVYDPGLKPLTISYDPATCLHVWNNGYSFLVEFEDSTDKSVIKGGPLEHNYRLKQFHFHWGAIDAWGSEHTVDSKCFPAELHLVHWNAVRFENFEDAALEENGLAVIGVFLKLGKHHKELQKLVDTLPSIKHKDALVEFGSFDPSCLMPTCPDYWTYSGSLTTPPLSESVTWIIKKQPVEVDHDQLEQFRTLLFTSEGEKEKRMVDNFRPLQPLMNRTVRSSFRHDYVLNVQAKPKPATSQATP
B9: hCAXV: α-carbonic anhydrase isoenzyme XV, membrane (protein, UniProt Q99N23 19-324, looked up)
Carbonic anhydrase 15: VDSSGTWCYDSQDPKCGPAHWKELAPACGGPTQSPINIDLRLVQRDYTLKPFIFQGYDSAPQDPWVLENDGHTVLLRVNSCQQNCPAIRGAGLPSPEYRLLQLHFHWGSPGHQGSEHSLDEKHGSMEMHMVHMNTKYQSMEDARSQPDGFAILAVLLVEEDRDNTNFSAIVSGLKNLSSPGVAVNLTSTFALASLLPSALRLLRYYRYSGSLTTPGCEPAVLWTVFENTVPIGHAQVVQFQAVLQTGPPGLHPRPLTSNFRPQQPLGGRRISASPEASVRSSVSTLPCLHLALVGLGVGLRLWQGP

The data set has as its system carbonic anhydrase.
“hCAI: human α-carbonic anhydrase isoenzyme I, cytosol”: the Kcat was 200000 s⁻¹.
On to “hCAXIII: human α-carbonic anhydrase isoenzyme XIII, cytosol”, for which the Kcat was 150000 s⁻¹.
Turning to B1, the Kcat is 420000 s⁻¹.
As to B2, the Kcat is 340000 s⁻¹.
Turning to B3, the Kcat is 310000 s⁻¹.
As for B4, the Kcat is 290000 s⁻¹.
Consider B5, for which the Kcat is 950000 s⁻¹.
Turning to B6, the Kcat was 1e+06 s⁻¹.
Consider B7, for which the Kcat was 10000 s⁻¹.
Turning to B8, the Kcat is 950000 s⁻¹.
Turning to B9, the Kcat is 470000 s⁻¹.
